In PMC12610585:

Substrate: O=[N+]([O-])c1ccc(O[C@H]2O[C@H](CO)[C@H](O)[C@H](O)[C@H]2O)cc1
Experiment: purified protein
Conditions: optimized conditions: 37 °C, pH 6.0, 10 min, 0-8 mM substrate

B1: Amuc_0517 (Akkermansia muciniphila ATCC BAA-835) (protein)
chain: QPRTTAILPVPGEKACRLPLPPYQAFCWFSADRGRWPGDGNRVLPWFGRTAPGNLLDSKPNPSTAKPGDHAMFALFHLKDGNFMAVLPVAAPDSLAWLKLERDGTFLVEAGSLGTSPAKPQAVLAVTATDKDIYRACSAVWDKALSLPFIKGRTLPREKKIYPEPFKYLGWCSWEQYKKNISSKLLEETARKLEASPVPVRWMLVDDGFQTQERLQLVSFQPRQDQFPRGWQPLMKHKSPKLKWMGLWHCYYGLWNGIHPRHRLDDETARGLVRTAKGKILPGDGSGGAGAFYTPFLQSVKDTGFDFVKIDVQAEYLKHADGLDNPVRHNTKCSEALEQACLKTGLSLVNCMAQGTVNIQNTRYSAVTRCSIDYKLGDEAMAKSHILQSYANTLWLGQTVWPDHDMFHSTDPACARLMAVSKAVSGGPVYLSDPADKLNPENIMPLVWSDGLLLRPLAPAVPLPDSVFPDALNENRLYRVIAPLPGQSAAVVVYNLKHPSPAEPVRGKISLEDYKNAAALLNGNAAEAYASLPAEGIAAYSAEGGRALTPAQPDLDVELTGFKDRLFIMAPIVQGWAVIGRRDKFLSPCALVSAPGYRENGLRFRVKESGPVVIWRGKGPVKAGNTPVRNLGNGFYELQFPVSDHPLDITVTAE
With B1 the Km was 8.2 mM.
